± gives the uncertainty stated by the source.

Our source for the abundance fitness values is the Human Domainome abundance scans (Beltran et al. 2025).

B1: Protein maelstrom homolog, residues 3 to 71; numbered along this chain, Q96JY0 (parent)
chain: NRKASRNAYYFFVQEKIPELRRRGLPVARVADAIPYCSSDWALLREEEKEKYAEMAREWRAAQGKDPGP

This data set covers variants of B1. The data set can be described thus: abundance fitness (aPCA) (normalised: wild type 0, dead -1); higher = more abundant; growth selection in yeast, the domain comes from the species named. The following applies: Homo sapiens.
Consider NRKASRNAYYFFVQEKIPELRRRGLRVARVADAIPYCSSDWALLREEEKEKYAEMAREWRAAQGKDPGP [P26R], for which the abundance fitness was -0.431 ± 0.25. As to NRKASRNAYYFFVQEKIPEKRRRGLPVARVADAIPYCSSDWALLREEEKEKYAEMAREWRAAQGKDPGP [L20K], the abundance fitness is -0.88 ± 0.16. As for NRKASRNAYYFFVQEKIPERRRRGLPVARVADAIPYCSSDWALLREEEKEKYAEMAREWRAAQGKDPGP [L20R], the abundance fitness was -0.959 ± 0.081. The value for NRKASRNAYYFFVQEKIPETRRRGLPVARVADAIPYCSSDWALLREEEKEKYAEMAREWRAAQGKDPGP [L20T] was -0.62 ± 0.11; that for NRKASRNAYYFFVQEKIPEIRRRGLPVARVADAIPYCSSDWALLREEEKEKYAEMAREWRAAQGKDPGP [L20I] was -0.636 ± 0.21; that for NRKASRNAYYFFVQEKIPEARRRGLPVARVADAIPYCSSDWALLREEEKEKYAEMAREWRAAQGKDPGP [L20A] was -1.1 ± 0.12. Consider NRKASRNAYYFFVQEKIPEQRRRGLPVARVADAIPYCSSDWALLREEEKEKYAEMAREWRAAQGKDPGP [L20Q], for which the abundance fitness was -0.797 ± 0.12. With NRKASRNAYYFFVQEKIPEVRRRGLPVARVADAIPYCSSDWALLREEEKEKYAEMAREWRAAQGKDPGP [L20V], the abundance fitness was -0.677 ± 0.08. On to NRKASRNAYYFFVQEKIPEMRRRGLPVARVADAIPYCSSDWALLREEEKEKYAEMAREWRAAQGKDPGP [L20M], for which the abundance fitness was -0.334 ± 0.15. For the variant NRKASRNAYYFFVQEKIPEWRRRGLPVARVADAIPYCSSDWALLREEEKEKYAEMAREWRAAQGKDPGP [L20W], the abundance fitness is -0.673 ± 0.12. In the case of NRKASRNAYYFFVQEKIPEGRRRGLPVARVADAIPYCSSDWALLREEEKEKYAEMAREWRAAQGKDPGP [L20G] it was -0.739 ± 0.068; in that of NRKASRNAYYFFVQEKIPEDRRRGLPVARVADAIPYCSSDWALLREEEKEKYAEMAREWRAAQGKDPGP [L20D], -0.772 ± 0.16. In the case of NRKASRNAYYFFVQEKIPESRRRGLPVARVADAIPYCSSDWALLREEEKEKYAEMAREWRAAQGKDPGP [L20S], the abundance fitness is -0.844 ± 0.11. NRKASRNAYYFFVQEKIPECRRRGLPVARVADAIPYCSSDWALLREEEKEKYAEMAREWRAAQGKDPGP [L20C]: the abundance fitness is -0.611 ± 0.17. With NRKASRNAYYFFVQEKIPENRRRGLPVARVADAIPYCSSDWALLREEEKEKYAEMAREWRAAQGKDPGP [L20N], the abundance fitness was -0.642 ± 0.22. On to NRKASRNAYYFFVQEKIPEPRRRGLPVARVADAIPYCSSDWALLREEEKEKYAEMAREWRAAQGKDPGP [L20P], for which the abundance fitness was -0.989 ± 0.14. Take NRKASRNAYYFFVQEKIPEHRRRGLPVARVADAIPYCSSDWALLREEEKEKYAEMAREWRAAQGKDPGP [L20H]: the abundance fitness was -0.953 ± 0.26. On to NRKASRNAYYFFVQEKIPELRRRGFPVARVADAIPYCSSDWALLREEEKEKYAEMAREWRAAQGKDPGP [L25F], for which the abundance fitness was -0.229 ± 0.35.

In the case of NRKASRNAYYFFVQEKIPELERRGLPVARVADAIPYCSSDWALLREEEKEKYAEMAREWRAAQGKDPGP [R21E], the abundance fitness was -0.496 ± 0.29.

Turning to NRKASRNAYYFFVQEKIPELLRRGLPVARVADAIPYCSSDWALLREEEKEKYAEMAREWRAAQGKDPGP [R21L], the abundance fitness is -0.024 ± 0.24. As to NRKASRNAYYFFVQEKIPELGRRGLPVARVADAIPYCSSDWALLREEEKEKYAEMAREWRAAQGKDPGP [R21G], the abundance fitness worked out at 0.058 ± 0.47. In the case of NRKASRNAYYFFVQEKIPELRRHGLPVARVADAIPYCSSDWALLREEEKEKYAEMAREWRAAQGKDPGP [R23H] it was -0.467 ± 0.35; in that of NRKASRNAYYFFVQEKIYELRRRGLPVARVADAIPYCSSDWALLREEEKEKYAEMAREWRAAQGKDPGP [P18Y], -0.673 ± 0.25.

In the case of NRKASRNAYYFFVQEKIKELRRRGLPVARVADAIPYCSSDWALLREEEKEKYAEMAREWRAAQGKDPGP [P18K], the abundance fitness was -0.498 ± 0.11. For NRKASRNAYYFFVQEKIVELRRRGLPVARVADAIPYCSSDWALLREEEKEKYAEMAREWRAAQGKDPGP [P18V], the abundance fitness was -0.268 ± 0.057. Consider NRKASRNAYYFFVQEKIGELRRRGLPVARVADAIPYCSSDWALLREEEKEKYAEMAREWRAAQGKDPGP [P18G], for which the abundance fitness is -0.31 ± 0.067. As to NRKASRNAYYFFVQEKILELRRRGLPVARVADAIPYCSSDWALLREEEKEKYAEMAREWRAAQGKDPGP [P18L], the abundance fitness is -0.606 ± 0.1. The value for NRKASRNAYYFFVQEKIQELRRRGLPVARVADAIPYCSSDWALLREEEKEKYAEMAREWRAAQGKDPGP [P18Q] was -0.338 ± 0.094. In the case of NRKASRNAYYFFVQEKIHELRRRGLPVARVADAIPYCSSDWALLREEEKEKYAEMAREWRAAQGKDPGP [P18H] it was -0.019 ± 0.26; in that of NRKASRNAYYFFVQEKIMELRRRGLPVARVADAIPYCSSDWALLREEEKEKYAEMAREWRAAQGKDPGP [P18M], -0.263 ± 0.097; in that of NRKASRNAYYFFVQEKITELRRRGLPVARVADAIPYCSSDWALLREEEKEKYAEMAREWRAAQGKDPGP [P18T], -0.411 ± 0.074. Consider NRKASRNAYYFFVQEKIRELRRRGLPVARVADAIPYCSSDWALLREEEKEKYAEMAREWRAAQGKDPGP [P18R], for which the abundance fitness is -0.526 ± 0.057. On to NRKASRNAYYFFVQEKISELRRRGLPVARVADAIPYCSSDWALLREEEKEKYAEMAREWRAAQGKDPGP [P18S], for which the abundance fitness is -0.4 ± 0.071. Regarding NRKASRNAYYFFVQEKIFELRRRGLPVARVADAIPYCSSDWALLREEEKEKYAEMAREWRAAQGKDPGP [P18F], the abundance fitness was -0.286 ± 0.16.

For the variant NRKASRNAYYFFVQEKIIELRRRGLPVARVADAIPYCSSDWALLREEEKEKYAEMAREWRAAQGKDPGP [P18I], the abundance fitness is -0.452 ± 0.2. In the case of NRKASRNAYYFFVQEKINELRRRGLPVARVADAIPYCSSDWALLREEEKEKYAEMAREWRAAQGKDPGP [P18N] it was -0.532 ± 0.15; in that of NRKASRNAYYFFVQEKIPELRRRALPVARVADAIPYCSSDWALLREEEKEKYAEMAREWRAAQGKDPGP [G24A], -0.398 ± 0.2. With NRKASRNAYYFFVQEKIPELRRRDLPVARVADAIPYCSSDWALLREEEKEKYAEMAREWRAAQGKDPGP [G24D], the abundance fitness was -0.311 ± 0.25. For NRKASRNAYYFFVQEKIPELRRRSLPVARVADAIPYCSSDWALLREEEKEKYAEMAREWRAAQGKDPGP [G24S], the abundance fitness was -0.773 ± 0.25.
